Test results from the nanobody polyreactivity screen of Harvey et al. (2022).

Experiment: yeast display, Sf9 membrane polyspecificity reagent, FACS + sequencing; frameworks hold sequencing errors
Procedure, shortened: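 In a synthetic yeast display library (Saccharomyces cerevisiae BJ5465), nanobody expression was induced with galactose for 36–48 hours. FACS gates were set low and high (top ~1%) using anti-HA fluorescence for expression and streptavidin fluorescence for binding of the Sf9 membrane reagent. Each polyreactivity label is drawn from the gate of origin.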

Sequence	polyreactivity (PSR sort gate)
QVQLVESGGGLVQAGGSLRLSCAASGFTFSPYAMGWYRQAPGKERELVAAISSSGGSTYYADSVKGRFTISRDNAKNTVYLQMNSLKPEDTAVYYCATQGTRRPGKFYYWGQGTQVTVSS	high polyreactivity
QVQLVESGGGLVQAGGSLRLSCAASGFTFIRNAMGWYRQAPGKERELVAVITRSGGSTYYADSVKGRFTISRDNAKNTVYLQMNSLKPQDTAVYYCAATLRYSPRRRYDYWGQGTQVTVSS	high polyreactivity
QVQLVESGGGLVQAGGSLRLSCAASGSIFTSYAVMGWYRQAPGKERELVAVITGGGITTYADSVKGRFTISRDNAKNTVYLQMNSLKPEDTAVYYCATDGWYHSEYDYWGQGTQVTVSS	low polyreactivity
QVQLVESGGGLVQAGGSLRLSCAASGSTFFNYAMGWYRQAPGKERELVAAITGSGGRTYYADSVKGRFTISRDNAKNTVYLQMNSLKPEDTAVYYCAASATYDPHDYWGQGTQVTVSS	high polyreactivity
QVQLVESGGGLVQAGGSLRLSCAASGRTFPYNAMGWYRQAPGKERELVAVISSSGGSTYYADSVKGRFTISRDNAKNTVYLQMNSLKPEETAVYYCNTRPYYYRRPGYRYSGYDYWGQGTQVTVSS	high polyreactivity
QVQLVESGGGLVQAGGSLRLSCAASGFTFSRNAMGWYIQAPGKERELVAAISQSGGSTYYADSVKGRFTISRDNAKNTVYLQMNSLKPEDTAVYYCAAQSFAQYGWRYGYWGQGTQVTVSS	high polyreactivity
QVQLVESGGGLVQAGGSLRLSCAASGSIFYLYAMGWYRQAPGKERELVASISSDGSTNYADSVKGRFTISRDNAKNTVYLQMNSLKPEDTAVYYCAADEGTGQASLSSNLYDYWGQGTQVTVSS	low polyreactivity
QVQLVESGGGLVQAGGSLRLSCAASGNIFVYNAMGWYRQAPGKERELVAAISWTGGSTYYADSVKGRFTISRDNAKNTVYLQMNSLKPEDTAVYYCAKSFGIWHARWLTYDYWGQGTQVTVSS	low polyreactivity
QVQLVESGGGLVQAGGSLRLSCAASGRTFFPYGMGWYRQAPGKERELVATISWSGGSTHYADSVKGRFTISRDNAKNTVYLQMNSLKPEDTAVYYCAAGNSLYWYNSGNYWGQGTQVTVSS	low polyreactivity
QVQLVESGGGLVQAGGSLRLSCAASGRIFNRYAMGWYRQAPGKERELVAAINYRGSSTYYADSVKGRFTISRDNAKNTGYLQMNSLKPEVTAVYYCKTYGQTDTYWRYYYWGQGTQVTVSS	high polyreactivity
QVQHVESGGGLVQGGGSLRLSCAASGSTFYAYAKGWYRQARGKERELVAVITSSGSTYYADSVKGRFTISRDNAKNTDYLQMNSLKAEDTAVYYCAAKRLSQSRRTQYRTRYQPMYYWGQGTQVTVSS	high polyreactivity
QVQLVESGGGLVQAGGSLRLSCAASGFTFYGNAMGWYRQAPGKERELVAAISLSDGYADSVKGRFTISRDNAKNTVYLLMNSLKPEDTAVYYCAKDRTDSKRREHDYWGQGTQVTVSS	low polyreactivity
QVELVESGGGLVQAGGSLRLSCAASGYTFRFNAMGWYRQAPGKEREFVAAIDFGGAGTYYADSVKGRFTISRDNAKNTVYLQMNSLKPEDTAVYYCNARDGVTTEFDYWGQGTQVTVSS	low polyreactivity
QVQLVESGVGLVQAGGSLRLSCASSGRTFTPNGMGWYRQAPGKERELVAAITYGGGITDYADSVKGRFTISRDNAKNTVYLQMNRLNPEDTAVYYCAATTLSFEGGKYWSKYDYWGQGTQVTVSS	low polyreactivity
QVQLVESGGGLVQAGGSLRLSCAASGSIFTGYAMGWYRQAPGKERELVAAISNSGTATYYADSVKGRFTISRDNAKNTVYLQMNSLKPEDSAVYYCNTVGHRWLSDDDYWGQGTQVTVSS	low polyreactivity
QVQLVESGGGLVKAGGSLRLSCAASGSTFVGYAMGWYRQAPGKEREIVAAITRGGSTNYADSVKGRFTISRDNAKNTVYLQMNSLKPEDTAVYYCAARDRREGFNFDYWGQGTQVTVSS	low polyreactivity
QVQLVESGGGLVQAGGSLRLRCAASGFIFAWDAMGWYRQAPGKERELVATISGSGGRTYYADSVKGRFPISRDNAKNTVYLQMISLKPEETAVYYCATRAQGTSWYRTSKYDYWGQGTQVIVSS	high polyreactivity
QVQLVESGGGLVQAGGSLRLSCAASGRIFYANAMGWYRQAPGKERELVAAISSGGSTYYADSVKGRFTISRDNAKNTVYLKMYSLKPEDTAVYYCAASTVGQTFSYYVDTYDYWGQGTQVTVSS	low polyreactivity
QVQLVESGGGLVQAGGSLRLSCAASGNIFSTYAMGWYRQAPGKERELVAAISKSGGRTYYADSVKGRFTISRDNAKNTVYLQMNSLKPEDTAVYYCNKRYQHGISFGYGYWGQGTQVTVSS	high polyreactivity
QVQLVESWGGLVQAGGSLRLSCAASGRIFGANARGWYRQAPGKERELVATITYGGTSTYYADSVKGRFTISRDNAKNSVYLQLNSLKPEYTADYYCAAASTYPLPYDFWGQGTQVTVSS	low polyreactivity
QVQLVESGGGLVQAGGSLRLSCAASGRIFRVNAMGWYRQAPGKERELVATITGSGGSTYYADSVKGRFTISRDNAKNTVYLQMNSLKPEDTAVYYCAAVSYWPTDRYYSWGQGTQVTVSS	low polyreactivity
QVQLVESGGGLVQAGGSLRLSCAASGFIFQGYARGWYRQAPGKERELVATISKSGGSTYYADSVKGRFTISRDTAKNTVYLQMTSLKPEDTAVYYCNARPGQSGARFGYWGQGTQVTVSS	high polyreactivity

Sequence	polyreactivity (PSR sort gate)
QVQLVESGGGLVQAGGSLRLSCAASGRIFSMNAMGWYRQAPGKERELVAGIRKRGGSTYYADSVKGRFTISRDNAKNTVYLQMNSLKPEDTAVYFCAAQPALTYRFYYLGQGTQVTVSS	high polyreactivity
QVQLVESGGGLVQAGGSLRLSCAASGSTFSSNAMGWYRKAPGKERELVAAISVNGGSTNYADSVKGRFTISRDNAKNTVYLQMNSLKPEDTAVYYCAAEPAKVAFYRGDYWGQGTQVTVSS	low polyreactivity
QVQLVESGGGLVQAGGSLRLICAASGRIFYSYSMGWSRPAPGKERELVATITTSGKTYYADSVNGRFTISRDNAKNTVYLQMNSLIPDDTAVYYCNAGWDLVYGYYPRRKIFDYWGQGTQVTVSS	high polyreactivity
QVQLVESGGGLVQAGGSLRLSCAASGSTFGANAMGWYRQAPGKEREFVAAISGSGTTTYYADSVKGRFTISRDNAKNTVYLQINSLKPEDTAVYYCAKTRKAHWLEYWGQGTQVTVSS	low polyreactivity
QVQLVESGGGLVQAGGSLRLSCAASGRTLGYYAMGWYRQAPGKERELVAAITSRTGTTYYADSVKGRFTISRDNAKNTVFLQMNSLKPEDTAVYYCNAAYYSTVLGWYLEYDYWGQGTQVTVSS	high polyreactivity
QVQLVESGGGLVQAGGSLRLSCAASGSTFTSYDMGWYRQAPGKERELVAAITISSGGTYYADSVKGRFTISRDNAKITVYLQMNSLKPEDTAVYYCAADIFADASYDYWGQGTQVTVSS	low polyreactivity
QVQLVESGGGLVQAGGSLRLSCAASGGTFEYNAMGWYRQAPGKERELVAAISKSGGRTYFADSVKGRFTISRDNAMNTVYLQMNSLKPEDTAVYYCAKRYVWGQGTQVTVSS	high polyreactivity
QVQLVESVGGIVQAGGSLRLSCAASGGICYEYAMGWYRQAPGKERELVATISFNVASTYADSVKGRFTISRDNAKNTVYLQMNSLKPEDTAVDYCIADTYWDRDSRYDYWGLGTQVTVSS	low polyreactivity
QVQLVESGGGLVQAGGSLRLSCAASGLTSTNNAMGWYRQAHGKERELVAAITSGSTTNYADSVKGRFTISRDNAKNTVYLQMNSLKPEDTAVYYCAAQYGVCWRRYYYPEYDYWGQGTQVTVSS	low polyreactivity
QVQLVESGGGLVQAGGSLRLSCAASGLIFYPYAMGWSRQAPGKEREFVAAITWSGGSTRYADSVKGRFTISRDNAKNTVYLQMNSLNPEDTAVYYCAAAYKWTYYWGQGTQVTVSS	high polyreactivity
QVQLVESGGGLVQAGGSLRLSCAASGSIFTWYAMGWSRPAPGKERELVAAITRGGSTYADSVKGRFTISRDNAKNTVYLQMNSLKPEDSAVYYCNAVYGVYDFNYWGQGTQVTVSS	low polyreactivity
QVQLVESGGGLVQAGGSLRLSCAASGRTFVFYAMGWYRPAPGKERELVADITWSDGNTYYADSVKGRFTISRDNAKNSVYLQMKSLKPEDTAVYYCAKVRTGQSRSVGYDYWGQGTQVTGSS	low polyreactivity
QVQHVESGGGLVQAGGSLRLSCAASGRIFAVNTMGWYRPAPVKERELVAAITSTGRTYYADSVKGRFTISRDNAKNTVYLQMNSLKPEDSAVYYCAADFRYPYAHLPYGYWGQGTQVTVSS	high polyreactivity
QVQLVESGGGLVQAGGSLRLSCAASGSTFDVYAMGGYRQAPGKERELVAVISSSDGGITYYADSVKGRFTISRDNAKNTVYLQMNSLKPEDTAVYYCNAESFIWLPQYSDYDYWGQGTQVTVSS	high polyreactivity
QVQLVESGGGLVQARGSLRLSCAPSGFIFDVYAMGWYRQAPGKERELVAAISSSGGRTYYADSVKGRFTISRDNAKNTVYLQMNSLKPEDTAVYYCAAKTDSRTKVYTADYWGQGTQVTVSS	high polyreactivity
QVQLVESGGGLVQAGGSLRLSCAASGSTFSAYTMGWYRQAPGKERELVAAISYRGGSTYYADSVKGRFTISRDNAKNTVYLQMNSRKPEDTAVYYCAAERKHYGLYDYWGQGTQVTVSS	low polyreactivity
QVQLVESGGGLVQAGGSLRLSCAASGSTFKRYAMGWYRQAPGKERELVAAIRRGGITNYADSVKGRFTISRDNAKNTVYLQINSLKPEDTAVYYWAATSIYSNYYREGYWGQGTQVTVSS	low polyreactivity
QVQLVESGGGLVQAGGSLRLSCAASGRTFYFYVMGWYRQAPGKERELVARISWSGGSTYYADSVKGRFTISRDNAKNTVYLQMNSLKPEDTAVYYCARQYKYPSSGEYDSWGQGTQVTVSS	low polyreactivity
QVQLVESGGGLVQAGGSLRLSCAASGNTFVYNDMGWYRQAPGKERELVADIRYSGSTYYADSVKGRFTISRDNAMNSVYLQMNSLKPEDTAVYYCAKAYYVLSWMGYWGQGTQVTVSS	low polyreactivity
QVQLVESGGGLVQAGGSHRLSSAASGSTFAYHHMGWYRQAPGKEREFVADIRSGGNTNYADSVKGRFTISRDNAKKTVYLLMNSLNPEDTAVYYCATDGYRIDVYHPDYRYDYWGQGSQVTVSS	low polyreactivity
QVQLVESGGGLVQAGGSLRLSCAASGFTFWNNAMGWYRQAPGKERELVAAISWSGGSTYYADSVKGRFTISRDNAKNTFDLQMNRLKPEDSAVYYCAAGDGPWLPRVHYGGYGYWGQGTQVTVSS	high polyreactivity
